Test results: article PMC9455977, “Deciphering the Regulatory Circuits of RA3 Replication Module - Mechanisms of the Copy Number Control”

Test system: RepA D76V (plasmid RA3 (IncU, isolated from Aeromonas hydrophila))
Experiment: EMSA
Details: 25 mM Tris-HCl pH 8.0, 5 mM MgCl2, 40 mM NaCl, 0.5 mg/mL BSA, 30 min at 37 C, 20 uL; 30 ng PCR fragment (0.8% agarose) or 150 ng ds oligo (10% native PAGE) …

Substance: repAp 256 bp PCR fragment
- binding signal (fold lower affinity than WT RepA): 5
